Data taken from patent US20240301071A1.

How the values were obtained:
[1] = target: huSIPRA v.1 CAA71403.1 (human) (UniProt P78324); assay: ELISA, plate coated with tagged SIRPA at 1 ug/mL
[2] = target: T1, human SIRPA on human macrophages (primary monocyte-derived macrophages; U937 line) (human), P78324; assay: cell-based or functional assay
[3] = target: T1, human SIRPA on human macrophages …
[4] = target: SIRPB1-Fc iso. 3 (human) (UniProt Q5TFQ8); assay: ELISA, plate coated with SIRP protein
Sequence of SIRPB1-Fc iso. 3 (human) (Q5TFQ8 30-371): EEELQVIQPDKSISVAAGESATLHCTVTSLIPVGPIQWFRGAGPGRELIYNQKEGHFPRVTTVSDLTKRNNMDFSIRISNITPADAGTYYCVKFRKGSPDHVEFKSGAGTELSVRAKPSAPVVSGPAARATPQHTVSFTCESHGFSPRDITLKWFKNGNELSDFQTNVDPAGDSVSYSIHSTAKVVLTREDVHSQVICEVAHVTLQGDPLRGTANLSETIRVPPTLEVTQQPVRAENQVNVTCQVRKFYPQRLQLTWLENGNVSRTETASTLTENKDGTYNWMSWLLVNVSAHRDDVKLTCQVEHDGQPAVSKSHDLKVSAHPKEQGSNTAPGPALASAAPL

[5] = target: SIRPA v2 (CAA71403.1) (human) (UniProt P78324); assay: ELISA, plate coated with SIRP protein
[6] = target: SIRPB1-His iso. 3 (human) (UniProt Q5TFQ8); assay: ELISA, plate coated with SIRP protein
Sequence of SIRPB1-His iso. 3 (human) (Q5TFQ8 30-371): as above

[7] = target: human SIRPA on human macrophages (primary monocyte-derived macrophages; U937 line) (human) (UniProt P78324); assay: cell-based or functional assay
Sequence of human SIRPA on human macrophages (primary monocyte-derived macrophages; U937 line) (human) (P78324 31-504): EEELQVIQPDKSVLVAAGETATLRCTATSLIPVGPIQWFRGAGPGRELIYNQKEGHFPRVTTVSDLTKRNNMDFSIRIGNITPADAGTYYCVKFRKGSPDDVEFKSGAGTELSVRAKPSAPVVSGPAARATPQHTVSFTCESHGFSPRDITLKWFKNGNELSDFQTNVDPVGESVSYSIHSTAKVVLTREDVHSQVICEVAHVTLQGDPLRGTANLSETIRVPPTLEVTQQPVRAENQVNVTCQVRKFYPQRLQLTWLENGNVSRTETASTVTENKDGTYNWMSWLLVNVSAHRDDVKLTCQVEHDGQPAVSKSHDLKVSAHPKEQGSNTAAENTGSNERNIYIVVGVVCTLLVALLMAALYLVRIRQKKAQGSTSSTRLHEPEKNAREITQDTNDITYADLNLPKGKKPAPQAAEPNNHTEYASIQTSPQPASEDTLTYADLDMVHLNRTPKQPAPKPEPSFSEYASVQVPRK

T1 sequence (P78324 31-504): as above

B1: mouse anti-SIRPA antibody m3F9 (antibody, mouse IgG1, V domains shown)
VH: EVKLVESGGGLVKPGGSLKLSCAASGFTFSSYAMSWVRQTPEKRLEWVATISDYGGSYTYYPDSVKGRFTISRDNAKYTLYLQMSSLRSEDTALYYCARPPYDDYYGGFAYWGQGTLVTVSA
VL: DIVLTQSPASLAVSLGQRATISCRASKSVSSSGYSYMHWYQQKPGQPPKLLIYLASNLESGVPARFSGSGSGTDFTLNIHPVEEEDAATYYCQHNRELPCTFGGGTKLEIK
B1 showed an EC50 [1] of 0.789 nM, a Phagocytosis, fold increase over baseline activity [2] of 1.51 fold and an SIRPA IC50 (nM), downregulation on U937 cells [2] of 0.105 nM. It also gave an SIRPA IC50 (nM), downregulation on human primary macrophages [2] of 0.00905 nM, an SIRPA Max % DR, U937 cells [2] of 75% and an SIRPA Max % DR, human primary macrophages [2] of 89%. The SIRPA downregulation on primary human macrophages, Donor 413 (flow cytometry) [2] was 90%, the SIRPA downregulation on primary human macrophages, Donor 414 (flow cytometry) [2] was 85% and the IC50 (read off the curve), SIRPA downregulation on primary human macrophages, Dnr. 414 [3] was 0.04 nM. The EC50 [4] was 0.319 nM, the EC50 [5] was 0.353 nM and the EC50 [6] was 0.435 nM.

B2: deglycosylated m3F9 anti-SIRPA antibody (antibody, mouse IgG1, V domains shown)
VH: EVKLVESGGGLVKPGGSLKLSCAASGFTFSSYAMSWVRQTPEKRLEWVATISDYGGSYTYYPDSVKGRFTISRDNAKYTLYLQMSSLRSEDTALYYCARPPYDDYYGGFAYWGQGTLVTVSA
VL: DIVLTQSPASLAVSLGQRATISCRASKSVSSSGYSYMHWYQQKPGQPPKLLIYLASNLESGVPARFSGSGSGTDFTLNIHPVEEEDAATYYCQHNRELPCTFGGGTKLEIK
modifications: here or on the partner: Fc glycan on Asn297 removed enzymatically with EndoS
Work on B2 yielded an SIRPA downregulation on primary human macrophages, Donor 413 (flow cytometry) [2] of 70%, an SIRPA downregulation on primary human macrophages, Donor 414 (flow cytometry) [2] of 75% and an IC50 (read off the curve), SIRPA downregulation on primary human macrophages, Dnr. 413 [3] of 0.07 nM.

B3: chimeric anti-SIRPA antibody 3F9 huIgG1 (antibody, V domains shown)
VH: EVKLVESGGGLVKPGGSLKLSCAASGFTFSSYAMSWVRQTPEKRLEWVATISDYGGSYTYYPDSVKGRFTISRDNAKYTLYLQMSSLRSEDTALYYCARPPYDDYYGGFAYWGQGTLVTVSA
VL: DIVLTQSPASLAVSLGQRATISCRASKSVSSSGYSYMHWYQQKPGQPPKLLIYLASNLESGVPARFSGSGSGTDFTLNIHPVEEEDAATYYCQHNRELPCTFGGGTKLEIK
B3 gave a Phagocytosis, fold increase over baseline activity [2] of 1.77 fold, an SIRPA IC50 (nM), downregulation on U937 cells [2] of 0.804 nM and an SIRPA IC50 (nM), downregulation on human primary macrophages [2] of 0.172 nM. It also gave an SIRPA Max % DR, U937 cells [2] of 68% and an SIRPA Max % DR, human primary macrophages [2] of 90%.

B4: anti-SIRPA antibody 18D5 (antibody, from another filing, V domains shown)
VH: QVQLQQPGAELVRPGSSVKLSCKASGYTFTSYWVHWVKQRPIQGLEWIGNIDPSDSDTHYNQKFKDKASLTVDKSSSTAYMQLSSLTFEDSAVYYCVRGGTGTMAWFAYWGQGTLVTVSA
VL: DVVMTQTPLSLPVSLGDQASISCRSSQSLVHSYGNTYLYWYLQKPGQSPKLLIYRVSNRFSGVPDRFSGSGSGTDFTLKISRVEAEDLGVYFCFQGTHVPYTFGSGTKLEIKR
Binder B4 has an EC50 (nM), phagocytosis of A375 cells by primary human macrophages [7] of 2.15 nM and a Max, fold increase in phagocytosis over baseline activity [7] of 1.06 fold.

B5: anti-SIRPA antibody 9C2 (antibody, V domains shown)
VH: EFQLQQSGAELVKPGASVKISCKASGYSLTGYNMNWVKQSRGKSLEWIGNINPHYGSSTYNQNFKDKATLTVDKSSSAAYMQFNSLTSEDSAVYYCAREGYDGVFDYWGQGTTLTVSS
VL: QIVLSQSPAILSASPGEKVTMTCRASSSVSYMHWYQQKPGSSPKPWIYVTSNLASGVPTRFSGSGSGTSYSLTISRVEAEDAATYYCQQWSSNPRTFGGGTKLEIK
B5 gave an EC50 [4] of 0.382 nM, an EC50 [5] of 0.358 nM and an EC50 [6] of 0.425 nM.
